{
  "source": "paper PMC10209032",
  "about": "“Molecular determinants for Rous sarcoma virus intasome assemblies involved in retroviral integration”",
  "molecules": {"B1": {"name": "RSV STC substrate (viral/target DNA) (mixed)", "DNA 1": "GAGTATTGCATAAGACAACAGTGCACGAAAGAAGAAGACACT", "DNA 2": "AATGTTGTCTTATGCAATACTC", "DNA 3": "AGTGTCTTCTTCTTTC"}},
  "key": {"[1]": {"target": "Rous sarcoma virus integrase IN (1–286) R244E (Rous sarcoma virus (Prague A))", "experiment": "not stated; oligomeric state of free purified IN proteins, without DNA; shown in Fig. S5, method and conditions not given"}, "[2]": {"target": "Rous sarcoma virus integrase IN (1–278), C-terminal tail truncation (Rous sarcoma virus (Prague A))", "experiment": "cryo-EM structure; STC intasome assembled from IN (1–278) 35 μM and the viral/target DNA substrate 10 μM by dialysis, purified by SEC in 20 mM HEPES pH 7.5, 650 mM NaCl, 1 mM TCEP; single particle, C2 symmetry, 3.36 Å; the IN oligomer stands on two DNA substrates"}, "[3]": {"target": "Rous sarcoma virus integrase IN (1–286) Y246A (Rous sarcoma virus (Prague A))", "experiment": "not stated; oligomeric state of free purified IN proteins, without DNA; shown in Fig. S5, method and conditions not given"}, "[4]": {"target": "Rous sarcoma virus (RSV) integrase, WT full-length IN (1–286 aa), Prague A (Rous sarcoma virus (Prague A))", "experiment": "not stated; oligomeric state of free purified IN proteins, without DNA; shown in Fig. S5, method and conditions not given"}, "[5]": {"target": "Rous sarcoma virus integrase IN (1–286) R244A (Rous sarcoma virus (Prague A))", "experiment": "not stated; oligomeric state of free purified IN proteins, without DNA; shown in Fig. S5, method and conditions not given"}, "RSV IN (1-278)": {"target": "T1, RSV IN (1-278) (Rous sarcoma virus, Prague A, UniProt P03354 1281-1558)", "T1 sequence": "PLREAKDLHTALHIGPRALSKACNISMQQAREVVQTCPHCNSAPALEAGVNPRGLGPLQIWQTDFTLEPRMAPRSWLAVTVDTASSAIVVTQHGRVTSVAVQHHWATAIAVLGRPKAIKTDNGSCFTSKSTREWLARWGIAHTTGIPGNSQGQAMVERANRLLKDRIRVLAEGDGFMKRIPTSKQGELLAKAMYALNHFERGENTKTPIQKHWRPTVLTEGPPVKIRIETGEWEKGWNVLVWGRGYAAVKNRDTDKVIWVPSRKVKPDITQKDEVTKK", "experiment": "cryo-EM (3.36 A); SEC; Zn2+ and Mg2+ listed in structure table; octameric STC; STC (IN 1-278, cryo-EM prep): 35 uM IN + 10 uM DNA in 20 mM HEPES pH 7.5, 1 M NaCl, 20% glycerol, 1 mM TCEP, dialyzed to 0.125 M NaCl, solubilized at 0.75 M NaCl; SEC in 20 mM HEPES pH 7.5, 650 mM NaCl, 1 mM TCEP. Mutant STC 18 h at 4 C; CSC with MK-2048 18 h at 18 C (buffer not in material)", "details": "protein: recombinant; chain copies: 8; branched; S2 pairs with S1[1-20] leaving 5' AA unpaired; S3 pairs with S1[27-42]; self-complementary S1[21-26]; GTGCAC pairs two copies; 2 copies of each strand in STC"}},
  "data": [
    {"molecule": "Rous sarcoma virus integrase IN (1–286) R244E (enzyme)", "values": [
      {"measurement": "stoichiometry N", "setting": "[1]", "value": 2}
    ]},
    {"molecule": "Rous sarcoma virus integrase IN (1–278), C-terminal tail truncation (enzyme)", "values": [
      {"measurement": "stoichiometry N", "setting": "[2]", "value": 8}
    ]},
    {"molecule": "Rous sarcoma virus integrase IN (1–286) Y246A (enzyme)", "values": [
      {"measurement": "stoichiometry N", "setting": "[3]", "value": 2}
    ]},
    {"molecule": "Rous sarcoma virus (RSV) integrase, WT full-length IN (1–286 aa), Prague A (enzyme)", "values": [
      {"measurement": "stoichiometry N", "setting": "[4]", "value": 2}
    ]},
    {"molecule": "Rous sarcoma virus integrase IN (1–286) R244A (enzyme)", "values": [
      {"measurement": "stoichiometry N", "setting": "[5]", "value": 2}
    ]},
    {"molecule": "B1", "values": [
      {"measurement": "binding result", "setting": "RSV IN (1-278)", "value": "binds"}
    ]}
  ]
}
